Measurements published in PMC7214386, “Plasmonic biosensors fabricated by galvanic displacement reactions for monitoring biomolecular interactions in real time” (Analytical and Bioanalytical Chemistry, 2020).

T1: asialofetuin (UniProt P12763 19-359, glycoprotein presenting terminal galactose residues)
T1 construct: asialofetuin (desialylated fetuin), printed mass 48 kDa; Physically adsorbed on the gold sensor; also called ASF; source: bought: Sigma
T1 sequence (looked up): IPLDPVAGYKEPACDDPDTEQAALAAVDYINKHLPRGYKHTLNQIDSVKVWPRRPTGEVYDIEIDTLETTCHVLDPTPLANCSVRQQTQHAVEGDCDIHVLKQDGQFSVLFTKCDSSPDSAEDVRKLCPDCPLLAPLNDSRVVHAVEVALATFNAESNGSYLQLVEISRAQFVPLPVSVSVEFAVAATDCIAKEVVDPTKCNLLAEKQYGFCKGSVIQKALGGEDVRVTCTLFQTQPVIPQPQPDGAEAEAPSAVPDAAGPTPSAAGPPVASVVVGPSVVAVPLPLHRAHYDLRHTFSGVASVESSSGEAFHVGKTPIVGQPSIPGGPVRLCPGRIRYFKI


Columns and labels:
[1] = molecular target: Protein A (Staphylococcus aureus) (UniProt P38507); assay: LSPR (localized surface plasmon resonance, reflectance spectroscopy); PrA covalently coupled to the nanostructured gold layer via cysteamine/glutardialdehyde; analyte flown over in PBS pH 7.4, 0.57 ml/min; equilibrium shifts of three sensors fitted to a Langmuir isotherm
[2] = molecular target: Protein A (Staphylococcus aureus) (UniProt P38507); assay: LSPR (localized surface plasmon resonance, reflectance spectroscopy); PrA physically adsorbed on the nanostructured gold layer; analyte flown over in PBS pH 7.4, 0.57 ml/min; equilibrium shifts of three sensors fitted to a Langmuir isotherm
asialofetuin = molecular target: T1, asialofetuin; assay: LSPR (localized surface plasmon resonance, reflectance spectroscopy); ASF physically adsorbed on the nanostructured gold layer; analyte in lectin buffer (10 mM HEPES, 150 mM NaCl, 0.1 mM CaCl2, pH 7.5); equilibrium shifts of three sensors fitted to a Langmuir isotherm; details: both partners purified

Row | Molecule | Kd [1] [nM] | Kd [2] [nM] | Kd (asialofetuin) [nM]
1 | immunoglobulin G (IgG, 150 kDa) from rabbit (antibody) | 150 | 140 | 
2 | Erythrina cristagalli lectin (natural protein, UniProt P83410 1-239, looked up, lectin of the plant Erythrina cristagalli; printed mass 54 kDa; The printed 54 kDa probably means a dimer of the lectin chain; also called ECL; source: bought: Vector Laboratories via BIOZOL Diagnostica) VETISFSFSEFEPGNDNLTLQGAALITQSGVLQLTKINQNGMPAWDSTGRTLYTKPVHMWDSTTGTVASFETRFSFSIEQPYTRPLPADGLVFFMGPTKSKPAQGYGYLGVFNNSKQDNSYQTLAVEFDTFSNPWDPPQVPHIGIDVNSIRSIKTQPFQLDNGQVANVVIKYDAPSKILHVVLVYPSSGAIYTIAEIVDVKQVLPDWVDVGLSGATGAQRDAAETHDVYSWSFQASLPE |  |  | 490
